± gives the standard deviation of the averaged measurements.
B1: library; a variant is named by its letters at N, in order (parent)
chain: AATGTTGTTGATGCAACCATAAAGTGATATTTAATAATTATTTATAATCAGCAACTTAACCACAAAACAACCATATATTGATATNTCACAAAACAACCATAANTTGATATTTTTGTGAATCGAGTATTTCAGCAAAACTACTGCAGTAAGAA

Experiments:
[1] = variants of: B1; test: relative integration efficiency (T-LR orientation) vs wild-type transposon end (log2 (normalized fold change)); transposon end mutated: left end; higher = more efficient transposition; conditions: with VchCAST RNA-guided transposition machinery (E. coli BL21(DE3) host, lacZ target)
Experimental: (§1)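 Pooled, barcoded VchCAST (Tn6677) mini-transposon donor libraries; each variable transposon-end sequence sits in a fixed pDonor mini-transposon context (10-bp barcode and cargo not included). Left- or right-end libraries were co-transformed with pEffector (TniQ-Cascade, TnsABC, lacZ crRNA, T7, 0.1 mM IPTG) into E. coli BL21(DE3) and grown 18 h at 37 C. T-LR and T-RL junction amplicons were sequenced; output/input barcode fold change was normalised to the mean of four wild-type barcodes and log2-transformed. Two biological replicates; zero-count/undetected variants carry floor values (-10 / -15), censored here. Barcode uncoupling by PCR recombination adds noise.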

[2] = variants of: B1; test: relative integration efficiency (T-RL orientation) vs wild-type transposon end (log2 (normalized fold change)); transposon end mutated: left end; higher = more efficient transposition; conditions: with VchCAST RNA-guided transposition machinery (E. coli BL21(DE3) host, lacZ target)
Experimental: as §1

| Variant | relative integration efficiency (log2) [1] | relative integration efficiency (log2) [2] |
| --- | --- | --- |
| CG A21T | -0.384 ± 0.81 | -0.164 ± 0.16 |
| CG A33T A34T | 0.663 ± 0.25 | 0.125 ± 0.061 |
| CG A23T | 0.0168 ± 0.12 | 0.086 ± 0.23 |
| CG A23C | 0.494 ± 0.15 | -0.467 ± 0.23 |
| CG A23G | 0.359 ± 0.084 | -0.0169 ± 0.11 |
| CG A37T T38A T39A A40T | 0.186 ± 0.28 | 0.137 ± 0.049 |
| CG A1C A2C | -0.0923 ± 0.12 | -0.242 ± 0.0032 |
| CG A2T T3A | 0.399 ± 0.43 | 0.191 ± 0.092 |
| CG A23T G24C | 0.111 ± 0.07 | -0.0468 ± 0.13 |
| TA T76A T78G C87A A96C T112G T113C | 0.518 ± 0.51 | 0.206 ± 0.018 |
| CG A27C T28G | -0.919 ± 0.29 | -1.27 ± 0.47 |
| TG A16C G24T T32G A33C T76A T78G C87A | 0.456 ± 0.7 | 0.525 ± 0.38 |
| CG A1T A2T T3A G4C | 0.144 ± 0.82 | 0.164 ± 0.1 |
| TG A16C G24T T30A T76A T78G C87A | -0.0456 ± 0.17 | 0.0194 ± 0.14 |
| TA G24A T30A T76A A77G C87T A96C T112G T113C | -0.263 ± 0.26 | 0.0641 ± 0.26 |
| CG A34C T35G A36C A37C | 0.532 ± 0.072 | 0.175 ± 0.24 |
| TA G24A T30A T76A T78G C87A T104A T110A T113A | 0.464 ± 0.53 | -0.242 ± 0.034 |
| TG A22T G24T T31C A33C T76A A77G C87T | -0.123 ± 0.13 | -0.61 ± 0.41 |
| CC T104A T105A G106C | -2.2109 ± 0.0012 | -1.71 ± 0.67 |
| TA T76A T78G C87A T104A T110A T113A | 0.215 ± 0.49 | -0.291 ± 0.22 |

| Variant | relative integration efficiency (log2) [1] | relative integration efficiency (log2) [2] |
| --- | --- | --- |
| CA G24A T30A A96C T112G T113C | 0.199 ± 0.4 | 0.0766 ± 0.11 |
| TA G24A T30A T76A A77G C87T A96C T110A T113A | 0.553 ± 0.26 | 0.0249 ± 0.25 |
| CG A11T | -0.735 ± 0.14 | -0.00672 ± 0.034 |
| CG A11C | 0.113 ± 0.091 | -0.401 ± 0.34 |
| CG A11G | -0.67 ± 0.84 | 0.0387 ± 0.29 |
| CG A37T | 0.0565 ± 0.29 | -0.0666 ± 0.052 |
| CG A37C | 0.0561 ± 0.13 | -0.222 ± 0.0095 |
| CG A37G | 0.434 ± 0.033 | 0.146 ± 0.027 |
| CG A21T A75T A101T | -1.38 ± 0.99 | -1.31 ± 0.37 |
| CG A33T | 0.232 ± 0.46 | 0.135 ± 0.21 |
| CG A33C | 0.29 ± 0.052 | 0.172 ± 0.082 |
| CG A33G | 0.00747 ± 0.0001 | 0.292 ± 0.074 |
| TG A22T G24T T31C A33C T76A T78G C87A | 1.14 ± 0.4 | 0.463 ± 0.49 |
| CA T104A T110A T113A | -0.182 ± 0.39 | -0.656 ± 0.2 |
| TG A16C G24T T30A T76A A77G C87T | -0.0311 ± 0.37 | -0.534 ± 0.47 |
| CG A36C A37C | 0.196 ± 0.61 | 0.127 ± 0.018 |
| TA G24A T30A A70C T76A T86G A96C T112G T113C | 0.18 ± 0.5 | 0.313 ± 0.07 |
| CG A34C T35C A36G T38C A40G T42C A44G T45C A46C A53C A62G A65G A66C | -1.83 ± 0.73 | -1.68 ± 0.71 |
| TA T76A T78G C87A T104G T113A | -0.127 ± 0.0086 | -0.3 ± 0.22 |
| CG A29T A83T A109T | -0.979 ± 0.74 | -0.428 ± 0.23 |

| Variant | relative integration efficiency (log2) [1] | relative integration efficiency (log2) [2] |
| --- | --- | --- |
| TA T76A T78A T84A C87A A96C T110A T113A | 0.0631 ± 0.19 | 0.318 ± 0.081 |
| CG A15T A69T A95T | -1.55 ± 0.76 | -1.31 ± 0.47 |
| CG A1T | 0.281 ± 0.54 | 0.063 ± 0.045 |
| CG A1G | 0.115 ± 0.63 | 0.133 ± 0.095 |
| CG A1C | 0.307 ± 0.19 | -0.0236 ± 0.1 |
| TA G24A T30A T76A T78A T84A C87A A102T T111C T113C | -0.493 ± 1.1 | -0.0919 ± 0.22 |
| CG A36G T42C A62G A65G A66C | -0.297 ± 0.32 | -0.575 ± 0.29 |
| CG A29C A83C A109C | -1.94 ± 0.43 | -1.65 ± 0.57 |
| TA G24A T30A A70C T76A T86G T104A T110A T113A | -0.21311 ± 4.7e-05 | -0.36 ± 0.27 |
| CG A1T A2T | 0.429 ± 0.098 | 0.223 ± 0.059 |
| CG A21T A22T A23T G24C | -0.979 ± 0.79 | -0.775 ± 0.46 |
| TG A16C G24T T32G A33C T76A T78A T84A C87A | -0.658 ± 0.78 | -0.572 ± 0.34 |
| CG A44C T45G | 0.0152 ± 0.65 | -0.0735 ± 0.14 |
| CG A23C G24T | -0.153 ± 0.042 | -0.106 ± 0.064 |
| CG A34C T35G T39C T41A T45A G51T C52A A53G A54G C60T A62G C63A | 0.531 ± 0.51 | -0.0678 ± 0.088 |
| TA G24A T30A A70C T76A T86G A102T T111C T113C | -0.456 ± 0.08 | -0.229 ± 0.18 |
| TG A23G G24T A33T T76A A77G C87T | 0.312 ± 0.44 | -0.26 ± 0.39 |
| CG A15T A16T | -0.556 ± 0.6 | -0.219 ± 0.36 |
